The values that follow come from patent publication US20240010722A1 (published 2024).

Numbering of substitutions follows the chain as printed.

The target of assay [1] is T1, murine MAdCAM on cells (mouse, UniProt Q61826 22-405).
T1 construct: whole, on cells; also called CHO cells over-expressing murine MAdCAM; MAdCAM-1 expressing structures of mouse mesenteric lymph node
T1 sequence (looked up): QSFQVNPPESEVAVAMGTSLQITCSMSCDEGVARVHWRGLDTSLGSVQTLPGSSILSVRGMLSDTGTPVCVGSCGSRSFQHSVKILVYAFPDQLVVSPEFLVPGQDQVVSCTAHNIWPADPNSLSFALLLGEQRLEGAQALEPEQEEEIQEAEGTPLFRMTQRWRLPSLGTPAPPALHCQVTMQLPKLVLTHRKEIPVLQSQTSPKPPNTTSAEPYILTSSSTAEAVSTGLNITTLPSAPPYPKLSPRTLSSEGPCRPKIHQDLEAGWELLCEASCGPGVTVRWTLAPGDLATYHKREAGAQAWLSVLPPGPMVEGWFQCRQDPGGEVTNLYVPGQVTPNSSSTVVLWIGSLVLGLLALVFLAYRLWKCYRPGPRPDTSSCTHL
Nature of the assay: confocal staining of mouse mesenteric lymph node sections, 1 and 10 nM. The procedure: Fresh frozen mesenteric lymph node replicates from a 12-week BALB/c mouse were sectioned at 5 um, fixed with acetone, blocked with blockaid buffer solution for ten minutes room temperature and incubated with 1 and 10 nM titrations of test articles overnight at 4-degree Celsius. Tissues were then stained with anti-mouse MAdCAM and anti-human IgG Fc for two hours room temperature, DAPI counterstained and mounted and imaged with confocal microscopy. Clones including optimized MAdCAM (PMAB58 and PMAB18) co-localized with MAdCAM-1 expressing structures similarly to the parental clones (PMAB1 and PMAB57).

Assay [2] deals with T2, human MAdCAM (human, UniProt Q13477 19-317, limits assumed).
T2 construct: also called huMAdCAM; human MAdCAM-1
T2 sequence (looked up): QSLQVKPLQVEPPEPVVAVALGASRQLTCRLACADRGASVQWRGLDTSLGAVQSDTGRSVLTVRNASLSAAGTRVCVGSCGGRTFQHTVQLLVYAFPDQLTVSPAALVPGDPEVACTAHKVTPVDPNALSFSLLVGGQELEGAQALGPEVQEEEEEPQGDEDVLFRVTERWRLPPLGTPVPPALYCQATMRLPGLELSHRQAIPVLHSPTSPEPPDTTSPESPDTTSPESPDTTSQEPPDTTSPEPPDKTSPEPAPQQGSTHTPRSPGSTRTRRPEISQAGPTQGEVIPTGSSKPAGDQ
Kind of assay: BLI (Octet), binder on anti-human Fc tips. (In general: In BLI a coated tip is dipped into the sample, and binding shifts an interference pattern.)

The target of assay [3] is Insulin. Kind of assay: polyreactivity ELISA on insulin coat, 100 nM. The procedure:
Non-specific DNA and Insulin binding is predictive of poor pharmacokinetics (PK). An immunosorbent plate was coated with dsDNA at a concentration of 1 μg/mL or Insulin at 5 μg/mL in PBS pH 7.4, 75 ul/well, and incubated overnight at 4° C. Wells were washed with PBS pH 7.4 containing 0.05% Tween-20 (wash buffer) three times, and then blocked with 200 ul/well 1% BSA in PBS pH 7.4 (block buffer) for two hours at room temperature. After three washes with wash buffer, TAs and controls Lenzilumab and Elotuzumab were diluted to 100 nM in PBS containing 1% BSA and 0.05% Tween-20 (assay buffer). The diluted material was added to the DNA/insulin coated plate at 75 ul/well for 1 hour at room temperature. After three washes with wash buffer, a donkey anti-human FcY HRP conjugated polyclonal antibody, diluted to 1:5000 in assay buffer, was added to the plate at 75 ul/well for 1 hr at room temperature. After three washes with wash buffer and three washes with wash buffer (with no tween-20), the assay was developed with TMB, and stopped with 1N HCL. OD 450 nm was measured. The experiment included appropriate controls for non-specific binding of test articles to the plate/block in the absence of DNA or insulin.
A general note: An ELISA detects its analyte on a solid surface through an enzyme-linked reagent.

Assay [4] concerns the target T3, human MAdCAM on CHO cells (human, UniProt Q13477 19-382).
T3 construct: whole, on cells; also called CHO cells over-expressing human MAdCAM
T3 sequence (looked up): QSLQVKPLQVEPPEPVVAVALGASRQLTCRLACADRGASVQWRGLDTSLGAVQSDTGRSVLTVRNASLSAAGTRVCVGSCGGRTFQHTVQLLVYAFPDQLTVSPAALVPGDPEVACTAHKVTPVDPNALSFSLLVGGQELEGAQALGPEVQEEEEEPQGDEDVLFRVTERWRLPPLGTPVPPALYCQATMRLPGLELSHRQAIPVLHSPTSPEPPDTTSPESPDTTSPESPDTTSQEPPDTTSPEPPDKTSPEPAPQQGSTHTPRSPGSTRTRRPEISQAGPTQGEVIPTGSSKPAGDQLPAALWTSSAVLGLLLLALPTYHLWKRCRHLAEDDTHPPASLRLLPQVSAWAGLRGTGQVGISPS
Kind of assay: flow cytometry on CHO cells. The procedure:
(§1) Parental CHO cells or CHO cells over-expressing human MAdCAM or murine MAdCAM were seeded onto wells of a 96 well plate (Corning) overnight. After washing 3 times with F12+10% FBS media, the plate was blocked for 1 hour with 5 uM whole human IgG. 10 nM parental MAdCAM-IL-2 M bi-specifics PRNT1 and PRNT2, or optimized variants MIAB12, MIAB13, MIAB25, MIAB26, MIAB37, MIAB204 and MIAB197 were captured for 1 hour. After washing 2 times with F12+10% FBS media, freshly-isolated human PBMCs were stimulated for 60 minutes with captured IL-2 MM bispecifics. Cells were then fixed for 10 minutes with BD Cytofix, permeabilized sequentially with BD Perm III, and BioLegend FOXP3 permeabilization buffer, blocked with human serum and stained for 30 minutes with antibodies against phospho-STAT5 A488, CD25 PE, FOXP3 AF647 and CD4 PerCP Cy5.5, CD3 BV421, CD56 BV785 and acquired on an Attune NXT with plate loader. […] Accordingly, PRNT1, PRNT2, MIAB1, MIAB12, MIAB13, MIAB25, MIAB26, MIAB37 MIAB204, and MIAB197 selectively activate Tregs.
In general terms: A flow cytometer gives signals particle by particle.

Assay [5] deals with T1, murine MAdCAM on cells. Nature of the assay: flow cytometry on CHO cells. The procedure: as §1

Sequence of Insulin (P01308 25-54, chain 1 of 2): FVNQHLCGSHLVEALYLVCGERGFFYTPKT
Sequence of Insulin (P01308 90-110, chain 2 of 2): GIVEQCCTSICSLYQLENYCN

B1: PMAB1 (bispecific antibody, human IgG1, kappa)
heavy: EVQLLESGGGLVQPGGSLRLSCAASGFTFSNSDMSWVRQAPGKGLEWVSGITISGGSTYYADSVKGRFTISRDNSKNTLYLQMNSLRAEDTAVYYCARGRGGSGWLDYWGQGTLVTVSSASTKGPSVFPLAPSSKSTSGGTAALGCLVKDYFPEPVTVSWNSGALTSGVHTFPAVLQSSGLYSLSSVVTVPSSSLGTQTYICNVNHKPSNTKVDKKVEPKSCDKTHTCPPCPAPEAAGAPSVFLFPPKPKDTLMISRTPEVTCVVVDVSHEDPEVKFNWYVDGVEVHNAKTKPREEQYNSTYRVVSVLTVLHQDWLNGKEYKCKVSNKALPAPIEKTISKAKGQPREPQVYTLPPSREEMTKNQVSLTCLVKGFYPSDIAVEWESNGQPENNYKTTPPVLDSDGSFFLYSKLTVDKSRWQQGNVFSCSVMHEALHNHYTQKSLSLSPGGGGGSGGGGSGGGGSEVQLLESGGGLVQPGGSLRLSCAASGFTFSDFWMHWVRQAPGKGLEWISYISGDSGYTNYADSVKGRFTISRDNSKNTLYLQMNSLRAEDTAVYYCARDRPYYYYMDVWGKGTTVTVSSGGGGSGGGGSGGGGSGGGGSDIQMTQSPSSLSASVGDRVTITCRASQSVSRSLAWYQQKPGKAPKLLIYAASSLQSGVPSRFSGSGSGTDFTLTISSLQPEDFATYYCQQYKSYPVTFGQGTKVEIK
light: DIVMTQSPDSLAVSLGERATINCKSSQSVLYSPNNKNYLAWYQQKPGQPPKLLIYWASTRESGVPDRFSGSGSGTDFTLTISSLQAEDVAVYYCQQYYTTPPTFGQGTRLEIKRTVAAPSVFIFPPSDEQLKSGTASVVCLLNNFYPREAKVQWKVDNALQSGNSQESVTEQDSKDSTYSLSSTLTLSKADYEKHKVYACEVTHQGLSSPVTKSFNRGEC
notes: also called parental PMAB1
As to B1, the binding result in assay [1] was “binds”.

B2: MIAB133 (antibody, V domains shown)
VH: EVQLLESGGGLVQPGGSLRLSCAASGFTFSSFWMHWVRQAPGKGLEWISYISGDSGYTNYADSVKGRFTISRDNSKNTLYLQMNSLRAEDTAVYYCARDRPYYYYMDVWGKGTTVTVSS
VL: DIQMTQSPSSLSASVGDRVTITCRASQSVSRSLAWYQQKPGKAPKLLIYAASSLQSGVPSRFSGSGSGTDFTLTISSLQPEDFATYYCQQYKSYPVTFGQGTKVEIK
notes: tested with human Fc; also called MIAB133-001
What is called Kd is the constant that tells how readily two partners part at equilibrium. Read a low Kd as a tighter complex. A word on the koff: it is a measure of how fast the partners let go of each other. Turning to B2, in assay [2], the Kd was determined as 20 nM and the koff turned out to be 0.0113 s⁻¹. The molecule further yielded an Insulin polyreactivity score in assay [3] of 13.2.

B3: MIAB153 (antibody, V domains shown)
VH: B2 VH with S31D
VL: B2 VL with R31S, A34N
notes: tested with human Fc
As usually defined, the kon is a measure of how fast the partners come together. Lower therefore signals slow association. In assay [2], B3 showed a Kd of 8360 nM, a koff of 0.543 s⁻¹ and a kon of 64800 M⁻¹ s⁻¹. This molecule also showed an Insulin polyreactivity score in assay [3] of 2.46.

B4: MIAB149 (antibody, V domains shown)
VH: B2 VH with S31D
VL: B2 VL with V29I, R31S
notes: tested with human Fc; also called MIAB149-001
In assay [2], B4 had a Kd of 68.8 nM, a koff of 0.0259 s⁻¹ and a kon of 376000 M⁻¹ s⁻¹. The molecule further displayed an Insulin polyreactivity score in assay [3] of 3.53.

B5: MIAB146 (antibody, V domains shown)
VH: B2 VH with S31D
VL: B2 VL with R31S
notes: tested with human Fc; also called MIAB146-001
For the molecule B5, in assay [2], binding was put at a Kd of 43.8 nM, the koff is 0.0197 s⁻¹ and the kon was 449000 M⁻¹ s⁻¹. In assay [3], this molecule showed an Insulin polyreactivity score of 2.61.

B6: MIAB148 (antibody, V domains shown)
VH: B2 VH with S31D
VL: B2 VL with A34N
notes: tested with human Fc
In the case of B6, in assay [2], the Kd was found to be 2690 nM, the koff came out at 0.314 s⁻¹ and the kon was 117000 M⁻¹ s⁻¹. The Insulin polyreactivity score in assay [3] was found to be 3.63.

B7: MIAB136 (antibody, V domains shown)
VH: B2 VH with F32Y, W33A, H35S
VL: B2 VL
notes: tested with human Fc
As to B7, the binding result in assay [2] was “no binding (tested: 150 nM)”. The Insulin polyreactivity score in assay [3] was found to be 75.4.

B8: MIAB147 (antibody, V domains shown)
VH: B2 VH with S31D
VL: B2 VL with S32Y
notes: tested with human Fc; also called MIAB147-001
Regarding B8, the binding result in assay [2] is reported as “no binding (tested: 200 nM)”. This molecule also had an Insulin polyreactivity score in assay [3] of 3.81.

B9: MIAB137 (antibody, V domains shown)
VH: B2 VH with S31D, I48V, Y50A, D54S, S55G, Y57S, N59Y
VL: B2 VL
notes: tested with human Fc
For B9, in assay [2], the Kd was found to be 203 nM, the koff came out at 0.082 s⁻¹ and the kon was found to be 404000 M⁻¹ s⁻¹. Moreover, in assay [3], the Insulin polyreactivity score was determined as 67.3.

B10: MIAB170 (antibody, V domains shown)
VH: B2 VH with S31D, Y105W
VL: B2 VL
notes: tested with human Fc
With B10, the binding result in assay [2] is on record as “no binding (tested: 1 µM)”. The same molecule came in with an Insulin polyreactivity score in assay [3] of 4.73.

B11: MIAB151 (antibody, V domains shown)
VH: B2 VH with S31D
VL: B2 VL with V29I, A34N
notes: tested with human Fc
As to B11, in assay [2], binding was put at a Kd of 2960 nM, the koff was 0.292 s⁻¹ and the kon turned out to be 98700 M⁻¹ s⁻¹. Further, the Insulin polyreactivity score in assay [3] worked out at 3.63.

B12: MIAB145 (antibody, V domains shown)
VH: B2 VH with S31D
VL: B2 VL with V29I
notes: tested with human Fc; also called MIAB145-001
In assay [2], B12 gave a Kd of 22.2 nM, a koff of 0.00897 s⁻¹ and a kon of 405000 M⁻¹ s⁻¹. This molecule also returned an Insulin polyreactivity score in assay [3] of 4.58.

B13: MIAB37 (antibody, V domains shown)
VH: EVQLLESGGGLVQPGGSLRLSCAASGFTFDDYAMHWVRQAPGKGLEWVASITSSSAFIDYADSVKGRFTISRDNSKNTLYLQMNSLRAEDTAVYYCAQERVDWNSYFDLWGQGTLVTVSS
VL: EIVMTQSPATLSVSPGERATLSCRASQGISNSYLAWYQQKPGQAPRLLIYGASTRATGIPARFSGSGSGTEFTLTISSLQSEDFAVYYCQQYYTYPPTFGQGTKVEIK
notes: tested with human Fc
Turning to B13, the binding result in assay [4] and in assay [5] was “binds” in each case.
